Experimental findings from US20180036405A1 (Regeneron, published 2018) are described below.

Test [1] deals with T1, human monomeric EGFR (EGFR.mmh) (human, UniProt P00533 25-647).
T1 construct: Soluble monomeric EGFR construct
Put plainly: SPR 37C, mAb captured by anti-human Fc, EGFR.mmh analyte. As to the method: (§1) Different concentrations of human monomeric (EGFR.mmh; SEQ ID NO:386) and dimeric (EGFR.mFc; SEQ ID NO:387) proteins were injected over the anti-EGFR monoclonal antibody captured surface at a flow rate of 50 μI/min. Antibody-antigen association was monitored for 4-5 minutes while dissociation of antigen from the captured monoclonal antibody surface was monitored for 10 min. Kinetic association (kₐ) and dissociation (kd) rate constants were determined by processing and fitting the data to a 1:1 binding model using Scrubber 2.0 curve fitting software.

The target in test [2] is T2, EGFR on A431 epidermoid carcinoma cells (human, UniProt P00533 25-1210). Description: cell-based or functional assay.
In test [3] the target is T3, human dimeric EGFR (EGFR.mFc) (human).
T3 construct: Soluble dimeric EGFR construct
Put plainly: SPR 37C, mAb captured by anti-human Fc, EGFR.mFc analyte. As to the method:
as §1

Test [4] concerns the target T2, EGFR on A431 epidermoid carcinoma cells. Put plainly: cell-based or functional assay. This is another data set of the same source.

B1: H1H103N (antibody, human IgG1, V domains shown)
VH: EVQLVESGGGLVQPGGSLRLSCAASGFTFSSYDMHWVRQTTGKGLEWVSGIGTAGDTYYPGSVKGRFTISREDAKNSLYLQMNSLRAGDTAVYYCARVGYDWNFVAFDYWGQGTLVTVSS
VL: DIVMTQSPLSLPVTPGEPASISCRSSQSLLHSNGYNYLDWYLQKPGQSPQLLIHLVSIRASGVPDRFSGSGSGTDFTLKISRVEAEDVGIYYCMQALQTPWTFGQGTKVEIK
notes: Tested in human IgG1 Fc format (H1H); also called H1M103N
In test [1], B1 gave a Kd of 13.9 nM, a dissociation rate constant (koff) of 0.00139 s⁻¹, a kon of 100000 M⁻¹ s⁻¹ and a t1/2 of 0.133 h. For the same molecule, in test [2], the “IC50 of A431 Proliferation” value came to 3.89e-09 Molar. In test [3], this molecule yielded a Kd of 0.109 nM, a koff of 4.19e-05 s⁻¹, an on-rate (kon) of 383000 M⁻¹ s⁻¹ and a t1/2 of 4.6 h. Moreover, in test [4], the “ADCC EC50” value stood at 7.25e-13 Molar and the “Maximum Cell Killing (%)” value came to 17%.

B2: H1H134P (antibody, human IgG1, V domains shown)
VH: EVQLVESGGGLVQPGGSLRLSCAASGFTFDDFAIHWVRQTPGRGLEWVSGLSWNSAYIAYADSVKGRFTISRDNAKDSLYLQMNSLRPEDTALYYCVKDTDIHLWFLFDFWGQGTLVTVSS
VL: not shown
notes: Human IgG1 Fc (H1H)
In test [1], B2 displayed a Kd of 0.848 nM, a koff of 0.000789 s⁻¹, an association rate constant (kon) of 930000 M⁻¹ s⁻¹ and a t1/2 of 0.25 h. The “IC50 of A431 Proliferation” value in test [2] amounted to 1.84e-09 Molar. Moreover, in test [3], binding was characterised by a dissociation constant (Kd) of 0.00799 nM, the off-rate (koff) came to 2.47e-05 s⁻¹, the association rate constant (kon) came out at 3.09e+06 M⁻¹ s⁻¹ and the t1/2 was found to be 7.8 h. In test [4], the “ADCC EC50” value was determined as 4.61e-11 Molar and the “Maximum Cell Killing (%)” value is 33%.

B3: H1H116N (antibody, human IgG1, V domains shown)
VH: QVQLQESGPGLVKPSQTLSLTCTVSGGSVSSGDYYWSWIRQHPGKGLDWIGHIYYSGSTYYNPSLKSRVTISLDTSKNQFSLKLNSVTAADTAVYYCARTAITGTMDYWGQGTLVTVSS
VL: EIVMTQSPATLSVSAGERATLSCRASQSVSSNLAWFQQKPGQAPRLLIYDASTRATGIPARFSGSGSGTEFTLIISSLQSEDFALYYCQQYNSWWTFGQGTKVEIK
notes: Tested in human IgG1 Fc format (H1H); also called H1M116N
For the molecule B3, in test [1], binding was characterised by a dissociation constant (Kd) of 5.27 nM, the off-rate (koff) stood at 0.00284 s⁻¹, the kon is 539000 M⁻¹ s⁻¹ and the t1/2 is 0.0667 h. Moreover, the “IC50 of A431 Proliferation” value in test [2] was 2.24e-10 Molar. In test [3], this molecule yielded an equilibrium dissociation constant (Kd) of 0.0203 nM, an off-rate constant (koff) of 3.16e-05 s⁻¹, a kon of 1.55e+06 M⁻¹ s⁻¹ and a t1/2 of 6.1 h. Also, in test [4], the “ADCC EC50” value worked out at 2.51e-13 Molar and the “Maximum Cell Killing (%)” value amounted to 29%.

A word on the Kd: it is the concentration at which binding is half-saturated. Read a high Kd as a looser complex. A word on the koff: it is the first-order rate constant of dissociation. A higher koff goes with a short-lived complex. The term kon denotes the second-order rate constant of association.
